Source: patent US20180155451A1 (published 2018)

T1: FcγRIIb (human, UniProt P31994 43-217)
T1 construct: extracellular domain; also called FcgRIIb; 2b; not shown: His tag at the C terminus
T1 sequence (looked up): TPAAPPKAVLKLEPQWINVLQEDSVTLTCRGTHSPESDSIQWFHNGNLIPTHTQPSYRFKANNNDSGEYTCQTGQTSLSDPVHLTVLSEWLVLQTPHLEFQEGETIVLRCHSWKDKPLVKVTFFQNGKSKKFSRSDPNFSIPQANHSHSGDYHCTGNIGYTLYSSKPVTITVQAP

T2: FcγRIIb extracellular domain with C-terminal His tag (human, UniProt P31994 43-217)
T2 construct: extracellular domain; also called 2b; FcgRIIb; not shown: His tag at the C terminus
T2 sequence (looked up): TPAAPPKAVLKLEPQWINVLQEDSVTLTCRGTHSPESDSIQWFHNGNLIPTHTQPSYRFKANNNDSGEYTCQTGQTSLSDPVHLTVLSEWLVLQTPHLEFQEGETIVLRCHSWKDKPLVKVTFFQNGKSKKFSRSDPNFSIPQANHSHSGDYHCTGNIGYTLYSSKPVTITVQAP


Columns and labels:
FcγRIa = biological target: T3, FcγRIa (human, UniProt P12314 16-292); assay: SPR (Biacore), captured antibody, soluble FcγR; relative to GpH7-A5/GpH7-B3/GpL16-k0
T3 construct: extracellular domain; also called FcgRI; 1a; not shown: His tag at the C terminus

FcγRIIb = biological target: T1, FcγRIIb; assay: as above
[1] = biological target: T4, FcγRIIIa extracellular domain with C-terminal His tag (human, UniProt P08637 17-208); assay: SPR (Biacore), relative binding, GpH7-A5/GpH7-B3/GpL16-k0 = 100
T4 construct: extracellular domain; also called 3a; FcgRIIIa; not shown: His tag at the C terminus

[2] = biological target: T2, FcγRIIb extracellular domain with …; assay: as above

T3 sequence (P12314 16-292): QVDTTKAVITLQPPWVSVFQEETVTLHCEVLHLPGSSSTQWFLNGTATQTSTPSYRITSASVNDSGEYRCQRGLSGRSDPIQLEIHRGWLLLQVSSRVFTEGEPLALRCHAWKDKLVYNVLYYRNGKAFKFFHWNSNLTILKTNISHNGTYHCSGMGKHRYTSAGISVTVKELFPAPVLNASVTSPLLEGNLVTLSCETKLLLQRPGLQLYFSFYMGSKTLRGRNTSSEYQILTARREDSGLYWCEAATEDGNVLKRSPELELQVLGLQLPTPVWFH
T4 sequence (P08637 17-208): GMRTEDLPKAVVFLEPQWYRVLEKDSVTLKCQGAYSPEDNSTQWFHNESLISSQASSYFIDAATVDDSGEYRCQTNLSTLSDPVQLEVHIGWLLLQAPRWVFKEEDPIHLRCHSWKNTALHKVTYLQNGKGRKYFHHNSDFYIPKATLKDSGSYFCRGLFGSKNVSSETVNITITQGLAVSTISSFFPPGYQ

He/Con_1a (FcγRIa)	He/Con_2b (FcγRIIb)	He/Con_3a [1]	He/Con_2b [2]	Binder
100 relative, HeCon Ab = 100	60.8 relative, HeCon Ab = 100			GpH7-A5/GpH7-B3 variant Q295_09D/GpL16-k0 (antibody, human IgG1, kappa, He Ab: mutation only in the GpH7-B3 H chain; EU numbering; also called He Ab) heavy 1: not shown heavy 2: not shown light: DIVMTQSPLSLPVTPGEPASISCQASESLVHSNRNTYLHWYLQKPGQSPQLLIYKVSNRFSGVPDRFSGSGSGTDFTLKISRVEAEDVGVYYCSQNTHVPPTFGQGTKVEIERTVAAPSVFIFPPSDEQLKSGTASVVCLLNNFYPREAKVQWKVDNALQSGNSQESVTEQDSKDSTYSLSSTLTLSKADYEKHKVYACEVTHQGLSSPVTKSFNRGEC
		21.3 % of control	57.2 % of control	GpH7-A5/GpH7-B3 variant V266_16H/GpL16-k0 (antibody, human IgG1, kappa, He Ab: mutation in the GpH7-B3 H chain only; also called He Ab) heavy 1: not shown heavy 2: not shown light: DIVMTQSPLSLPVTPGEPASISCQASESLVHSNRNTYLHWYLQKPGQSPQLLIYKVSNRFSGVPDRFSGSGSGTDFTLKISRVEAEDVGVYYCSQNTHVPPTFGQGTKVEIERTVAAPSVFIFPPSDEQLKSGTASVVCLLNNFYPREAKVQWKVDNALQSGNSQESVTEQDSKDSTYSLSSTLTLSKADYEKHKVYACEVTHQGLSSPVTKSFNRGEC
103 relative, HeCon Ab = 100	66.8 relative, HeCon Ab = 100			GpH7-A5/GpH7-B3 variant Q295_14T/GpL16-k0 (antibody, human IgG1, kappa, He Ab: mutation only in the GpH7-B3 H chain; EU numbering; also called He Ab) heavy 1: not shown heavy 2: not shown light: DIVMTQSPLSLPVTPGEPASISCQASESLVHSNRNTYLHWYLQKPGQSPQLLIYKVSNRFSGVPDRFSGSGSGTDFTLKISRVEAEDVGVYYCSQNTHVPPTFGQGTKVEIERTVAAPSVFIFPPSDEQLKSGTASVVCLLNNFYPREAKVQWKVDNALQSGNSQESVTEQDSKDSTYSLSSTLTLSKADYEKHKVYACEVTHQGLSSPVTKSFNRGEC
		34.7 % of control	89.2 % of control	GpH7-A5/GpH7-B3 variant V266_19Q/GpL16-k0 (antibody, human IgG1, kappa, He Ab: mutation in the GpH7-B3 H chain only; also called He Ab) heavy 1: not shown heavy 2: not shown light: DIVMTQSPLSLPVTPGEPASISCQASESLVHSNRNTYLHWYLQKPGQSPQLLIYKVSNRFSGVPDRFSGSGSGTDFTLKISRVEAEDVGVYYCSQNTHVPPTFGQGTKVEIERTVAAPSVFIFPPSDEQLKSGTASVVCLLNNFYPREAKVQWKVDNALQSGNSQESVTEQDSKDSTYSLSSTLTLSKADYEKHKVYACEVTHQGLSSPVTKSFNRGEC
110 relative, HeCon Ab = 100	64.5 relative, HeCon Ab = 100			GpH7-A5/GpH7-B3 variant S298_03V/GpL16-k0 (antibody, human IgG1, kappa, He Ab: mutation only in the GpH7-B3 H chain; EU numbering; also called He Ab) heavy 1: not shown heavy 2: not shown light: DIVMTQSPLSLPVTPGEPASISCQASESLVHSNRNTYLHWYLQKPGQSPQLLIYKVSNRFSGVPDRFSGSGSGTDFTLKISRVEAEDVGVYYCSQNTHVPPTFGQGTKVEIERTVAAPSVFIFPPSDEQLKSGTASVVCLLNNFYPREAKVQWKVDNALQSGNSQESVTEQDSKDSTYSLSSTLTLSKADYEKHKVYACEVTHQGLSSPVTKSFNRGEC
107 relative, HeCon Ab = 100	73.4 relative, HeCon Ab = 100			GpH7-A5/GpH7-B3 variant S298_02A/GpL16-k0 (antibody, human IgG1, kappa, He Ab: mutation only in the GpH7-B3 H chain; EU numbering; also called He Ab) heavy 1: not shown heavy 2: not shown light: DIVMTQSPLSLPVTPGEPASISCQASESLVHSNRNTYLHWYLQKPGQSPQLLIYKVSNRFSGVPDRFSGSGSGTDFTLKISRVEAEDVGVYYCSQNTHVPPTFGQGTKVEIERTVAAPSVFIFPPSDEQLKSGTASVVCLLNNFYPREAKVQWKVDNALQSGNSQESVTEQDSKDSTYSLSSTLTLSKADYEKHKVYACEVTHQGLSSPVTKSFNRGEC
107 relative, HeCon Ab = 100	70.6 relative, HeCon Ab = 100			GpH7-A5/GpH7-B3 variant S298_07I/GpL16-k0 (antibody, human IgG1, kappa, He Ab: mutation only in the GpH7-B3 H chain; EU numbering; also called He Ab) heavy 1: not shown heavy 2: not shown light: DIVMTQSPLSLPVTPGEPASISCQASESLVHSNRNTYLHWYLQKPGQSPQLLIYKVSNRFSGVPDRFSGSGSGTDFTLKISRVEAEDVGVYYCSQNTHVPPTFGQGTKVEIERTVAAPSVFIFPPSDEQLKSGTASVVCLLNNFYPREAKVQWKVDNALQSGNSQESVTEQDSKDSTYSLSSTLTLSKADYEKHKVYACEVTHQGLSSPVTKSFNRGEC
103 relative, HeCon Ab = 100	94.8 relative, HeCon Ab = 100			GpH7-A5/GpH7-B3 variant Q295_10E/GpL16-k0 (antibody, human IgG1, kappa, He Ab: mutation only in the GpH7-B3 H chain; EU numbering; also called He Ab) heavy 1: not shown heavy 2: not shown light: DIVMTQSPLSLPVTPGEPASISCQASESLVHSNRNTYLHWYLQKPGQSPQLLIYKVSNRFSGVPDRFSGSGSGTDFTLKISRVEAEDVGVYYCSQNTHVPPTFGQGTKVEIERTVAAPSVFIFPPSDEQLKSGTASVVCLLNNFYPREAKVQWKVDNALQSGNSQESVTEQDSKDSTYSLSSTLTLSKADYEKHKVYACEVTHQGLSSPVTKSFNRGEC
101 relative, HeCon Ab = 100	70.4 relative, HeCon Ab = 100			GpH7-A5/GpH7-B3 variant Q295_11K/GpL16-k0 (antibody, human IgG1, kappa, He Ab: mutation only in the GpH7-B3 H chain; EU numbering; also called He Ab) heavy 1: not shown heavy 2: not shown light: DIVMTQSPLSLPVTPGEPASISCQASESLVHSNRNTYLHWYLQKPGQSPQLLIYKVSNRFSGVPDRFSGSGSGTDFTLKISRVEAEDVGVYYCSQNTHVPPTFGQGTKVEIERTVAAPSVFIFPPSDEQLKSGTASVVCLLNNFYPREAKVQWKVDNALQSGNSQESVTEQDSKDSTYSLSSTLTLSKADYEKHKVYACEVTHQGLSSPVTKSFNRGEC
